Results from a protein production outcome set (Wang et al. 2014).

test: label from the status in PepcDB records

Sequence	protein production
MSLDFWLYKQAQQNGHHIAITDGQESYTYQNLYCEASLLAKRLKAYQQSRVGLYIDNSIQSIILIHACWLANIEIAMINTRLTPNEMTNQMRSIDVQLIFCTLPLELRGFQIVSLDDIEFAGRDITTNGLLDNTMGIQYDTSNETVVPKESPSNILNTSFNLDDIASIMFTSGTTGPQKAVPQTFRNHYASAIGCKESLGFDRDTNWLSVLPIYHISGLSVLLRAVIEGFTVRIVDKFNAEQILTMIKNERITHISLVPQTLNWLMQQGLHEPYNLQKILLGGAKLSATMIETALQYNLPIYNSFGMTETCSQFLTATPEMLHARPDTVGMPSANVDVKIKNPNKEGHGELMIKGANVMNGYLYPTDLTGTFENGYFNTGDIAEIDHEGYVMIYDRRKDLIISGGENIYPYQIETVAKQFPGISDAVCVGHPDDTWGQVPKLYFVSESDISKAQLIAYLSKHLAKYKVPKHFEKVDTLPYTSTGKLQRNKLYREGHHHHHH	not failed
MSLDKKLMPVPDGHPDVFDREWPLRVGDIDRAGRLRLDAACRHIQDIGQDQLREMGFEETHPLWIVRRTMVDLIRPIEFGDMLRCRRWCSGTSNRWCEMRVRVDGRKGGLIESEAFWIHVNRETEMPARIADDFLAGLHRTTSVDRLRWKGYLKPGSRDDASEIHEFPVRVTDIDLFDHMNNAVYWSVIEDYLASHAELLRGPLRVTIEHEAPVALGDKLEIISHVHPAGSTEIFGPGLVDRAVTTLTYVVGDEPKAVASLFNL	failed
MSLDNLDVICIGAAIVDIPLQPVSKNIFDVDSYPLERIAMTTGGDAINEATIISRLGHRTALMSRIGKDAAGQFILDHCRKENIDIQSLKQDVSIDTSINVGLVTEDGERTFVTNRNGSLWKLNIDDVDFARFSQAKLLSLASIFNSPLLDGKALTEIFTQAKARQMIICADMIKPRLNETLDDICEALSYVDYLFPNFAEAKLLTGKETLDEIADCFLACGVKTVVIKTGKDGCFIKRGDMTMKVPAVAGITAIDTIGAGDNFASGFIAALLEGKNLRECARFANATAAISVLSVGATTGVKNRKLVEQLLEEYEGEGHHHHHH	not failed
MSLDSALRSRIETLLHSNRVVLFMKGRPGMPQCGFSAKAAGILQALGVEYAHVNVLDDQEIREGIKRYGDWPTIPQLYIDGELIGGSDIVSQMYENGELSTLLGVAAPDLTPPSITITPTAVEMLKGTLANAPGSTLALSIDSRFQPTFELAPINTQAIAAEYNGLRVQFDLASARRAEGITIDWVDDIRGQGLVIDNPNAPQPIQELSPGDAAAQVDAGVLTLVDVRPADERAVASVAVPFRTMDGGERAVLEQLPKGTPLAFLCHHGGRSLQAAEHFRSLGFTSIYNIGGGIDAWSTQVDPGVPKY	failed
MSLEAAGGIVWRWKAGSDIANDPAIASSKSAQEQLDSIEVCIVHRPKYDDWSWPKGKLEQNETHRHAAVREIGEETGSPVKLGPYLCEVEYPLSEEGKKTRHSHDCTADTKHTLYWMAQPISADDAEHLLDAFGPVHRADVGEINDIVWVSVREARKILSHSTDKDTLAVFVDRVQEGAATAQNLLIVRHAKAESRKSWKGTDANRPITPKGAAMAFALNRELACFNPTRLATSPWLRCQETLQVLSWQTERPMEHINTLTEDAFAEHPAVSWLAFREQITQTLNSRETTAICMHRPVIGGMYDHLRGLCARKQLAKQLIAKSPYMPTGTAMSLFIIDTPQGPSIIDIQKVSPIVYEGHHHHHH	not failed
MSLEGIKQINFQSINVVENLEEAKEGIPTIIMFKTDTCPYCVEMQKELSYVSKEREGKFNIYYARLEEEKNIDLAYKYDANIVPTTVFLDKEGNKFYVHQGLMRKNNIETILNSLGVKEGHHHHHH	not failed
MSLELARRLVEILLALALIQQSLEHLRGFRDERILFGARIVLAVLVLAGVAGPWPLVGLAGLSLLILHRFQGPYNGGSDRMGLLILWCLTLSSLAPTPILAELAFGYLGAQLTLSYFISGWVKVVNPDWRSGRALRDVFQFSAYPVAESLRGFAQRPGLLRAMSWGVMGFELAFPLTLLWPPALMVGLVVAGTFHLANACLFGLNRFFWTWLSAYPAILWLQGRVF	failed
MSLETFHYIANQLSGIFNFNGEPLATALIILGLAILSIMILAGLIYGAIKVVKAVPNMPFKQFIIVMLMIAVFLVIVGVLIP	failed
MSLETKTPNDAKNQVQTHERMKTSSEHVTPLDFNYPIHIVQAPQNHHVVGILTPRIQVSDNLKPYIDKFQDALINQIQTIFEKRGYQVLRFQDEKALNAQDKRKIFSVLDLKGWVGILEDLKMNLKDPNNPNLDTLVDQSSGSVWFNFYEPESNRVVHDFAVEVGTFQAMTYTYKHNNSGGLNSSNSIIHEYLEKNKEDAIHKILNRMYAVVMKKAVTELTKENIDKYREAIDRMKGFKSSMPQKKEGHHHHHH	not failed
MSLFEAILIILVLIIISAVISSSEISLAGARKLKLHSLAKDGDIRAEKVMRLQEQPGRFITMVQIGLNMVAILGGVVGESAITPYLAKLLAQYSQAEWTESTASWLSFALVTSAFVLLADLMPKRIAMTYPEQVAVRTINIMLCLITIFKPLVLLFDSIANLLFRLFGISTVRQDNMTSEDIVAVVDAGAKAGILKAQEHYLIENVFEMQERRVTSTMTTRENIIFLDRKDNREQVLATLGEDPYSKVLICDNGLDKILGYIETHDLLTQYLKNDHVSLVDSRLLRKPVFIPDTLSLYEVLELFKSAGEDFAVIVNEYALVVGILTINDVMSIVMGELVSTEEEQIMRRNEDSWLIDGATPLEDVMRALNIHTFPRDENYETIGGFMMYMLRKIPKKTDFVLYDKYKFEIIDTENFRIDQLMVSFRKDV	failed
MSLFGTTSGFGTSGTSMFGSATTDNHNPMKDIEVTSSPDDSIGCLSFSPPTLPGNFLIAGSWANDVRCWEVQDSGQTIPKAQQMHTGPVLDVCWSDDGSKVFTASCDKTAKMWDLSSNQAIQIAQHDAPVKTIHWIKAPNYSCVMTGSWDKTLKFWDTRSSNPMMVLQLPERCYCADVIYPMAVVATAERGLIVYQLENQPSEFRRIESPLKHQHRCVAIFKDKQNKPTGFALGSIEGRVAIHYINPPNPAKDNFTFKCHRSNGTNTSAPQDIYAVNGIAFHPVHGTLATVGSDGRFSFWDKDARTKLKTSEQLDQPISACCFNHNGNIFAYASSYDWSKGHEFYNPQKKNYIFLRNAAEELKPRNKK	failed
MSLFPGDIEELARRIITDFTPLGLMVSTAESCTGGLIAGALTEIAGSSAVVDRGFVTYTNDAKRDMLGVGTETLTTFGAVSRQTALQMAHGALYRSRANFAVAVTGIAGPGGGSAEKPVGLVHLATKARNGNVLHHEMRYGDIGRTEIRLATVRTALEMLIALNQAGSV	not failed
MSLGGNGREKDHASELRSIFSLKKIADAVNGYEEAKYVVFGIPFDNTSSYRRGSKYAPDSIRGAYVNLESYEYSYGIDLLASGMADLGDMEESEDVEYVIDTVESVVSAVMSDGKIPIMLGGEHSITVGAVRALPKDVDLVIVDAHSDFRSSYMGNKYNHACVTRRALDLLGEGRITSIGIRSVSREEFEDPDFRKVSFISSFDVKKNGIDKYIEEVDRKSRRVYISVDMDGIDPAYAPAVGTPEPFGLADTDVRRLIERLSYKAVGFDIVEFSPLYDNGNTSMLAAKLLQVFIASREKYYKEHIEGHHHHHH	not failed
MSLGNIFVTGRIAFSLKYEQQTQSLVVHVKECHQLAYADEAKKRSNPYVKTYLLPDKSRQGKRKTSIKRDTVNPLYDETLRYEIPESLLAQRTLQFSVWHHGRFGRNTFLGEAEIQMDSWKLDKKLDHCLPLHGKISAESEGHHHHHH	not failed
MSLGNNSAKGTATGNATALWRNAQLATLNPAMDGIGAVENAVIAVRNGRIAFAGPESDLPDDLSTADETTDCGGRWITPALIDCHTHLVFGGNRAMEFEMRLNGATYEEIAKAGGGIVSSVRDTRALSDEVLVAQALPRLDTLLSEGVSTIEIKSGYGLDIETELKMLRVARRLETLRPVRIVTSYLAAHATPADYKGRNADYITDVVLPGLEKAHAEGLADAVDGFCEGIAFSVKEIDRVFAAAQQRGLPVKLHAEQLSNLGGAELAASYNALSADHLEYLDETGAKALAKAGTVAVLLPGAFYALREKQLPPVQALRDAGAEIALATDCNPGTSPLTSLLLTMNMGATLFRMTVEECLTATTRNAAKALGLLAETGTLEAGKSADFAIWDIERPAELVYRIGFNPLHARIFKGQKVSPEGHHHHHH	not failed
MSLGQQQVTLFWSGAITGPTSDAGAPYGAAVEDYCKWANERKLVPGVVFNCVVRDDQYNNANTQRFFEEAVDRFKIPVFLSYATGANLQLKPLIQELRIPTIPASMHIELIDPPNNDYIFLPTTSYSEQVVALLEYIAREKKGAKVALVVHPSPFGRAPVEDARKAARELGLQIVDVQEVGSGNLDNTALLKRFEQAGVEYVVHQNVAGPVANILKDAKRLGLKMRHLGAHYTGGPDLIALAGDAAEGFLWATSFYMAHEDTPGIRLQKEIGRKYGRPENFIESVNYTNGMLAAAIAVEAIRRAQERFKRITNETVYQAIVGMNGPNAFKPGFAVSTKQGVEIDFTKSEHTGAEGLRILEAKGGRFVPVTEPFTSALFRKVHYGEGHHHHHH	not failed
MSLGRTDAIALAYPSRPRVLNNSTFLEMISWIGIELGKRGLDLLLIPDEPGEKYQSLIHLVETRRVDALIVAHTQPEDFRLQYLQKQNFPFLALGRSHLPKPYAWFDFDNHAGASLAVKRLLELGHQRIAFVSTDARISYVDQRLQGYVQTMSEAGLMPLAGYLQKADPTRPGGYLAASRLLALEVPPTAIITDCNMLGDGVASALDKAGLLGGEGISLIAYDGLPDDSLLDIAVTPIVQNTRTSVGKQIASMICDLLGGKDPKELQVLWQPEIGEGETDGVNRRGEGHHHHHH	not failed
MSLHDQRVHAERDPLDPQAHGLTITRIETIPMVAPLAREFRGSHYHMTHRATIVTRVHTDAGIIGEAYTGDEHETMFDIDRIIHEELAPTLIGQDAMAIERLWDSGYKVTFDILRDRRLGLVALAAVNTAIWDAVGKALKMPLWKLWGGYRNELPMIAIGGYYGEPLGSIADEMHNYQELGLAGVKFKVGGLSAAEDAARITAAREAAGDDFIICIDANQGYKPAVAVDLSRRIADLNIRWFEEPVEWHNDKRSMRDVRYQGSVPVCAGQTEFSASGCRDLMETGAIDVCNFDSSWSGGPTAWLRTAAIATSYDVQMGHHEEPQVSTHLLASQPHGTIAECFHPDRDPFWWNMITNRPKLNNGTLTLSDRPGLGWDLNWDYIDQYRVSKDEGHHHHHH	not failed
MSLHETFNRSAFSQFINGGQGRVLRLAAGLGFLAVGLVYRDRALGLAAMAWSVLPLTAGGFDVCYISAALGGPLSGEKIRRLRR	failed
MSLHPHLNANLEGGVLTLAINRPEAKNALYGELYLWIAKALDEADQNKDVRVVVLRGAEHDFTAGNDMKDFMGFVQNPNAGPAGQVPPFVLLKSAARLSKPLIIAVKGVAIGIGVTILLQADLVFADNTALFQIPFVSLGLSPEGGASQLLVKQAGYHKAAELLFTAKKFNAETALQAGLVNEIVEDAYATAQATAQHLTALPLASLKQTKALMKHDLDQIIECIDHEAEIFMQRVQSPEMLEAVQAFMQKRQPDFSQEGHHHHHH	not failed
MSLIPLRQNIASMKGYIPGYQPPDIASWIKLNTNENPYPPSPEVVKAILEELGPDGAALRIYPSASSQKLREVAGELYGFDPSWIIMANGSDEVLNNLIRAFAAEGEEIGYVHPSYSYYGTLAEVQGARVRTFGLTGDFRIAGFPERYEGKVFFLTTPNAPLGPSFPLEYIDELARRCAGMLVLDETYAEFAESNALELVRRHENVVVTRTLSKSYSLAGMRIGLAIARPEVIAALDKIRDHYNLDRLAQAACVAALRDQAYLSECCRRIRETREWFTTELRSIGYDVIPSQGNYLFATPPDRDGKRVYDGLYARKVLVRHFSDPLLAHGMRISIGTREEMEQTLAALKEIGEGHHHHHH	not failed
